Assay results as given in patent publication US20240270846A1 (published 2024).

B1: GPC3 ERY22-B (bispecific antibody, human IgG1, kappa, L234A L235A, N297A)
heavy 1: DIVMTQSPLSLPVTPGEPASISCRSSQSLVHSNRNTYLHWYQQKPGQAPRLLIYKVSNRFSGVPDRFSGSGSGTDFTLKISRVEAEDVGVYYCSQNTHVPPTFGQGTKLEIKSSASTKGPSVFPLAPSSKSTSGGTAALGCLVKDYFPEPVTVSWNSGALTSGVHTFPAVLQSSGLYSLSSVVTVPSSSLGTQTYICNVNHKPSNTKVDKKVEPKSCDKTHTCPPCPAPEAAGGPSVFLFPPKPKDTLMISRTPEVTCVVVDVSHEDPEVKFNWYVDGVEVHNAKTKPREEQYASTYRVVSVLTVLHQDWLNGKEYKCKVSNKALPAPIEKTISKAKGQPREPQVCTLPPSRDELTKNQVSLWCLVKGFYPSDIAVEWESNGQPENNYKTTPPVLDSDGSFFLYSKLTVDKSRWQQGNVFSCSVMHEALHNHYTQKSLSLSPHHHHHHHH
light 1: QVQLVQSGAEVKKPGASVKVSCKASGYTFTDYEMHWIRQPPGQGLEWIGAIDPKTGDTAYSQKFKGRVTLTADKSTSTAYMELSSLTSEDTAVYYCTRFYSYTYWGQGTLVTVSSASVAAPSVFIFPPSDEQLKSGTASVVCLLNNFYPREAKVQWKVDNALQSGNSQESVTEQDSKDSTYSLSSTLTLSKADYEKHKVYACEVTHQGLSSPVTKSFNRGEC
heavy 2: QVQLQQWGAGLLKPSETLSLTCAVYGGSFSGYYWSWIRQSPEKGLEWIGEINHGGYVTYNPSLESRVTISVDTSKNQFSLKLSSVTAADTAVYYCARDYGPGNYDWYFDLWGRGTLVTVSSASTKGPSVFPLAPSSKSTSGGTAALGCLVKDYFPEPVTVSWNSGALTSGVHTFPAVLQSSGLYSLSSVVTVPSSSLGTQTYICNVNHKPSNTKVDKKVEPKSCDKTHTCPPCPAPEAAGGPSVFLFPPKPKDTLMISRTPEVTCVVVDVSHEDPEVKFNWYVDGVEVHNAKTKPREEQYASTYRVVSVLTVLHQDWLNGKEYKCKVSNKALPAPIEKTISKAKGQPREPQVYTLPPSRCELTKNQVSLSCAVKGFYPSDIAVEWESNGQPENNYKTTPPVLDSDGSFFLVSKLTVDKSRWQQGNVFSCSVMHEALHNHYTQKSLSLSP
light 2: not shown
B2: GPC3 ERY22-dBBDu_183/L063 (bispecific antibody, human IgG1, kappa, L234A L235A, N297A)
heavy 1: DIVMTQSPLSLPVTPGEPASISCRSSQSLVHSNRNTYLHWYQQKPGQAPRLLIYKVSNRFSGVPDRFSGSGSGTDFTLKISRVEAEDVGVYYCSQNTHVPPTFGQGTKLEIKSSASTKGPSVFPLAPSSKSTSGGTAALGCLVKDYFPEPVTVSWNSGALTSGVHTFPAVLQSSGLYSLSSVVTVPSSSLGTQTYICNVNHKPSNTKVDKKVEPKSCDKTHTCPPCPAPEAAGGPSVFLFPPKPKDTLMISRTPEVTCVVVDVSHEDPEVKFNWYVDGVEVHNAKTKPREEQYASTYRVVSVLTVLHQDWLNGKEYKCKVSNKALPAPIEKTISKAKGQPREPQVCTLPPSRDELTKNQVSLWCLVKGFYPSDIAVEWESNGQPENNYKTTPPVLDSDGSFFLYSKLTVDKSRWQQGNVFSCSVMHEALHNHYTQKSLSLSPHHHHHHHH
light 1: QVQLVQSGAEVKKPGASVKVSCKASGYTFTDYEMHWIRQPPGQGLEWIGAIDPKTGDTAYSQKFKGRVTLTADKSTSTAYMELSSLTSEDTAVYYCTRFYSYTYWGQGTLVTVSSASVAAPSVFIFPPSDEQLKSGTASVVCLLNNFYPREAKVQWKVDNALQSGNSQESVTEQDSKDSTYSLSSTLTLSKADYEKHKVYACEVTHQGLSSPVTKSFNRGEC
heavy 2: QVQLVESGGGLVQPGRSLRLSCAASGFTFSNAWMHWVRQAPGKGLEWVAQIKDKGNAYAAYYAPSVKGRFTISRDDSKNSIYLQMNSLKTEDTAVYYCHYVHYASASTVLPAFGVDAWGQGTTVTVSSASTKGPSVFPLAPSSKSTSGGTAALGCLVKDYFPEPVTVSWNSGALTSGVHTFPAVLQSSGLYSLSSVVTVPSSSLGTQTYICNVNHKPSNTKVDKKVEPKSCDKTHTCPPCPAPEAAGGPSVFLFPPKPKDTLMISRTPEVTCVVVDVSHEDPEVKFNWYVDGVEVHNAKTKPREEQYASTYRVVSVLTVLHQDWLNGKEYKCKVSNKALPAPIEKTISKAKGQPREPQVYTLPPSRCELTKNQVSLSCAVKGFYPSDIAVEWESNGQPENNYKTTPPVLDSDGSFFLVSKLTVDKSRWQQGNVFSCSVMHEALHNHYTQKSLSLSPDYKDDDDK
light 2: DIVMTQSPLSLPVTPGEPASISCRSSQELVHTNRHTYLHWYQQKPGQAPRLLIYKVSNRFPGVPDRFSGSGSGTDFTLKISRVEAEDVGVYYCAQGTQVPFTFGQGTKLEIKRTVAAPSVFIFPPSDEQLKSGTASVVCLLNNFYPREAKVQWKVDNALQSGNSQESVTEQDSKDSTYSLSSTLTLSKADYEKHKVYACEVTHQGLSSPVTKSFNRGEC
B3: GPC3 ERY22-dBBDu_167/L091 (bispecific antibody, human IgG1, kappa, L234A L235A, N297A)
heavy 1: DIVMTQSPLSLPVTPGEPASISCRSSQSLVHSNRNTYLHWYQQKPGQAPRLLIYKVSNRFSGVPDRFSGSGSGTDFTLKISRVEAEDVGVYYCSQNTHVPPTFGQGTKLEIKSSASTKGPSVFPLAPSSKSTSGGTAALGCLVKDYFPEPVTVSWNSGALTSGVHTFPAVLQSSGLYSLSSVVTVPSSSLGTQTYICNVNHKPSNTKVDKKVEPKSCDKTHTCPPCPAPEAAGGPSVFLFPPKPKDTLMISRTPEVTCVVVDVSHEDPEVKFNWYVDGVEVHNAKTKPREEQYASTYRVVSVLTVLHQDWLNGKEYKCKVSNKALPAPIEKTISKAKGQPREPQVCTLPPSRDELTKNQVSLWCLVKGFYPSDIAVEWESNGQPENNYKTTPPVLDSDGSFFLYSKLTVDKSRWQQGNVFSCSVMHEALHNHYTQKSLSLSPHHHHHHHH
light 1: QVQLVQSGAEVKKPGASVKVSCKASGYTFTDYEMHWIRQPPGQGLEWIGAIDPKTGDTAYSQKFKGRVTLTADKSTSTAYMELSSLTSEDTAVYYCTRFYSYTYWGQGTLVTVSSASVAAPSVFIFPPSDEQLKSGTASVVCLLNNFYPREAKVQWKVDNALQSGNSQESVTEQDSKDSTYSLSSTLTLSKADYEKHKVYACEVTHQGLSSPVTKSFNRGEC
heavy 2: QVQLVESGGGLVQPGRSLRLSCAASGFTFSNAWMHWVRQAPGKGLEWVAQIKDKGNLYAAYYAPSVKGRFTISRDDSKNSIYLQMNSLKTEDTAVYYCHYVHYASAGGGLPGFGVDAWGQGTTVTVSSASTKGPSVFPLAPSSKSTSGGTAALGCLVKDYFPEPVTVSWNSGALTSGVHTFPAVLQSSGLYSLSSVVTVPSSSLGTQTYICNVNHKPSNTKVDKKVEPKSCDKTHTCPPCPAPEAAGGPSVFLFPPKPKDTLMISRTPEVTCVVVDVSHEDPEVKFNWYVDGVEVHNAKTKPREEQYASTYRVVSVLTVLHQDWLNGKEYKCKVSNKALPAPIEKTISKAKGQPREPQVYTLPPSRCELTKNQVSLSCAVKGFYPSDIAVEWESNGQPENNYKTTPPVLDSDGSFFLVSKLTVDKSRWQQGNVFSCSVMHEALHNHYTQKSLSLSPDYKDDDDK
light 2: DIVMTQSPLSLPVTPGEPASISCSASESLLHNNRHTYLHWYQQKPGQAPRLLIYRVSNRFNGVPDRFSGSGSGTDFTLKISRVEAEDVGVYYCGQGTQVPFTFGQGTKLEIKRTVAAPSVFIFPPSDEQLKSGTASVVCLLNNFYPREAKVQWKVDNALQSGNSQESVTEQDSKDSTYSLSSTLTLSKADYEKHKVYACEVTHQGLSSPVTKSFNRGEC
B4: GPC3 ERY22-dBBDu_183/L072 (bispecific antibody, human IgG1, kappa, L234A L235A, N297A)
heavy 1: DIVMTQSPLSLPVTPGEPASISCRSSQSLVHSNRNTYLHWYQQKPGQAPRLLIYKVSNRFSGVPDRFSGSGSGTDFTLKISRVEAEDVGVYYCSQNTHVPPTFGQGTKLEIKSSASTKGPSVFPLAPSSKSTSGGTAALGCLVKDYFPEPVTVSWNSGALTSGVHTFPAVLQSSGLYSLSSVVTVPSSSLGTQTYICNVNHKPSNTKVDKKVEPKSCDKTHTCPPCPAPEAAGGPSVFLFPPKPKDTLMISRTPEVTCVVVDVSHEDPEVKFNWYVDGVEVHNAKTKPREEQYASTYRVVSVLTVLHQDWLNGKEYKCKVSNKALPAPIEKTISKAKGQPREPQVCTLPPSRDELTKNQVSLWCLVKGFYPSDIAVEWESNGQPENNYKTTPPVLDSDGSFFLYSKLTVDKSRWQQGNVFSCSVMHEALHNHYTQKSLSLSPHHHHHHHH
light 1: QVQLVQSGAEVKKPGASVKVSCKASGYTFTDYEMHWIRQPPGQGLEWIGAIDPKTGDTAYSQKFKGRVTLTADKSTSTAYMELSSLTSEDTAVYYCTRFYSYTYWGQGTLVTVSSASVAAPSVFIFPPSDEQLKSGTASVVCLLNNFYPREAKVQWKVDNALQSGNSQESVTEQDSKDSTYSLSSTLTLSKADYEKHKVYACEVTHQGLSSPVTKSFNRGEC
heavy 2: QVQLVESGGGLVQPGRSLRLSCAASGFTFSNAWMHWVRQAPGKGLEWVAQIKDKGNAYAAYYAPSVKGRFTISRDDSKNSIYLQMNSLKTEDTAVYYCHYVHYASASTVLPAFGVDAWGQGTTVTVSSASTKGPSVFPLAPSSKSTSGGTAALGCLVKDYFPEPVTVSWNSGALTSGVHTFPAVLQSSGLYSLSSVVTVPSSSLGTQTYICNVNHKPSNTKVDKKVEPKSCDKTHTCPPCPAPEAAGGPSVFLFPPKPKDTLMISRTPEVTCVVVDVSHEDPEVKFNWYVDGVEVHNAKTKPREEQYASTYRVVSVLTVLHQDWLNGKEYKCKVSNKALPAPIEKTISKAKGQPREPQVYTLPPSRCELTKNQVSLSCAVKGFYPSDIAVEWESNGQPENNYKTTPPVLDSDGSFFLVSKLTVDKSRWQQGNVFSCSVMHEALHNHYTQKSLSLSPDYKDDDDK
light 2: DIVMTQSPLSLPVTPGEPASISCQASQELVHMNRNTYLHWYQQKPGQAPRLLIYKVSNRFPGVPDRFSGSGSGTDFTLKISRVEAEDVGVYYCAQGTSVPFTFGQGTKLEIKRTVAAPSVFIFPPSDEQLKSGTASVVCLLNNFYPREAKVQWKVDNALQSGNSQESVTEQDSKDSTYSLSSTLTLSKADYEKHKVYACEVTHQGLSSPVTKSFNRGEC

Target: human CD137 expressed constitutively on the B cell strain HDLM-2 (human, UniProt Q07011 24-255)
Sequence (Q07011 24-255): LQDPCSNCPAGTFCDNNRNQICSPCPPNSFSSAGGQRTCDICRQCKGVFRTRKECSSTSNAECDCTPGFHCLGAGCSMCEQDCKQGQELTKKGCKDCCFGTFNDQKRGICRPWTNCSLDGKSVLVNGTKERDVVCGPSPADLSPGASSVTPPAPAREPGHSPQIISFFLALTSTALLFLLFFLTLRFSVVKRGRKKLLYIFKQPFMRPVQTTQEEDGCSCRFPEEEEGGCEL
Test: cell-based or functional assay

Which “Agonistic activity compared to B, antibody 6 µg/mL” value does the source give for B1 here?
The value was 100%.

And the “Agonistic activity compared to B, antibody 30 µg/mL” value?
Its value is 100%.

And the “Agonistic activity compared to Ctrl, antibody 6 µg/mL” value?
Its value is 347%.

And the “Agonistic activity compared to Ctrl, antibody 30 µg/mL” value?
Its value is 380%.

What about the “hIL-6 (pg/mL), antibody 6 µg/mL” value of the same binder?
The value was 4520 pg/mL.

And the “hIL-6 (pg/mL), antibody 30 µg/mL” value?
The value was 4340 pg/mL.

Which “Agonistic activity compared to B, antibody 6 µg/mL” value does the source give for B2 here?
The value was -1.27%.

What about the “Agonistic activity compared to B, antibody 30 µg/mL” value of the same binder?
Its value is 6.51%.

And the “Agonistic activity compared to Ctrl, antibody 6 µg/mL” value?
Its value is -4.41%.

What about the “Agonistic activity compared to Ctrl, antibody 30 µg/mL” value of the same binder?
The value was 24.7%.

What about the “hIL-6 (pg/mL), antibody 6 µg/mL” value of the same binder?
The value was 968 pg/mL.

And the “hIL-6 (pg/mL), antibody 30 µg/mL” value?
Its value is 1130 pg/mL.

How did the “Agonistic activity compared to B, antibody 6 µg/mL” value turn out when B3 was run?
The value was -2.21%.

And the “Agonistic activity compared to B, antibody 30 µg/mL” value?
Its value is 1.1%.

What about the “Agonistic activity compared to Ctrl, antibody 6 µg/mL” value of the same binder?
Its value is -7.68%.

And the “Agonistic activity compared to Ctrl, antibody 30 µg/mL” value?
Its value is 4.19%.

What about the “hIL-6 (pg/mL), antibody 6 µg/mL” value of the same binder?
Its value is 935 pg/mL.

What about the “hIL-6 (pg/mL), antibody 30 µg/mL” value of the same binder?
Its value is 944 pg/mL.

What does the source list for B4?
Agonistic activity compared to B, antibody 6 µg/mL: 3.21%; Agonistic activity compared to B, antibody 30 µg/mL: 15.8%; Agonistic activity compared to Ctrl, antibody 6 µg/mL: 11.1%; Agonistic activity compared to Ctrl, antibody 30 µg/mL: 59.8%; hIL-6 (pg/mL), antibody 6 µg/mL: 1130 pg/mL; hIL-6 (pg/mL), antibody 30 µg/mL: 1450 pg/mL
